Data as given in paper PMC3428623.

Molecular target: Pbs2-HKMT (S. cerevisiae) (UniProt P08018)
Assay: proximity labelling

Chain of Pbs2-HKMT (S. cerevisiae) (P08018 whole entry): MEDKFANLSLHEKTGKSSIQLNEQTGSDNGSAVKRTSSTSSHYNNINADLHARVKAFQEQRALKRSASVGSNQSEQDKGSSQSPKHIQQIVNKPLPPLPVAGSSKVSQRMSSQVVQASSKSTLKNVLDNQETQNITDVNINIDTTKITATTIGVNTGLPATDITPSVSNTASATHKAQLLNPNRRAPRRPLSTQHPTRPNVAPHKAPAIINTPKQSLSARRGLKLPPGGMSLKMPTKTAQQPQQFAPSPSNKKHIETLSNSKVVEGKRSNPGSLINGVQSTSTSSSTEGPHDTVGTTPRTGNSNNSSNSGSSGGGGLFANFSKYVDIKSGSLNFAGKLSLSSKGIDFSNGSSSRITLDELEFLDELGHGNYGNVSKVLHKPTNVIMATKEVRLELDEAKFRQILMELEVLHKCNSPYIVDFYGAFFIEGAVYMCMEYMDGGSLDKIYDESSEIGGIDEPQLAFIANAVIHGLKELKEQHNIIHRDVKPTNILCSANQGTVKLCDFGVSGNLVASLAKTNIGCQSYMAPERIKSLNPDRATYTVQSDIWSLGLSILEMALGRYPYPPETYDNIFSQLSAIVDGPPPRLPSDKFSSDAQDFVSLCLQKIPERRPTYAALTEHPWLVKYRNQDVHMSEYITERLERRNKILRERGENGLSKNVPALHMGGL

| Substance | percent reduction in methylation signal in comparison with wild-type Sho1 [%] |
| --- | --- |
| Sho1-H3-HA Y54M mutant (natural protein) | 92 |
| Sho1-H3-HA Y8A mutant (natural protein) | 70 |
